According to patent publication US12359223B2, “Systems and methods for modulating chromosomal rearrangements” (Editas Medicine, Inc., priority 2018, dated 2025):

Tested on: chromosome 15 (B2M) and chromosome 14 (TRAC) cut sites
Assay: Translocation rates induced by translocation promoting oligos
Format: cell-based, human
Details: Cas9/B2M12 and Cas9/TRAC5 RNPs 0.6 μM; average of plus and minus strand oligo; FIG. 11B
Procedure: Two simultaneous DSBs were introduced in primary human T cells by nucleofection with Cas9/B2M (B2M12 gRNA) and Cas9/TRAC (TRAC5 gRNA) RNP complexes at a concentration of 0.6 μM, along with one of the translocation promoting oligos depicted in FIG. 11A.

B1: Dicentric oligo: translocation promoting ssODN, plus or minus strand, SEQ ID NOs: 16, 17 (nucleic acid)
chain 1: CACGCGTTTAATATAAGTGGAGGCGTCGCGCTGGCGGGCATTCCTGAAGCTGACAGCATTCGGGCCGAGATGATCAGGGTTCTGGATATCTGTGGGACAAGAGGATCAGGGTTAGGACATGATCTCATTTCCCTCTTTGCCCC
chain 2: GGGGCAAAGAGGGAAATGAGATCATGTCCTAACCCTGATCCTCTTGTCCCACAGATATCCAGAACCCTGATCATCTCGGCCCGAATGCTGTCAGCTTCAGGAATGCCCGCCAGCGCGACGCCTCCACTTATATTAAACGCGTG
modifications: /note=“Description of Unknown Donor template sequence”
translocation products enhanced: enhanced the formation of Dicentric and Acentric translocation products
